The values that follow come from IntAct's records for PubMed 18547146.

The labels stand for the following.
B1: BH3-interacting domain death agonist (Mus musculus), P70444 (parent)
chain: MDSEVSNGSGLGAEHITDLLVFGFLQSSGCTRQELEVLGRELPVQAYWEADLEDELQTDGSQASRSFNQGRIEPDSESQEEIIHNIARHLAQIGDEMDHNIQPTLVRQLAAQFMNGSLSEEDKRNCLAKALDEVKTAFPRDMENDKAMLIMTMLLAKKVASHAPSLLRDVFHTTVNFINQNLFSYVRNLVRNEMD

Variants of B1 are the subject of this assay. As to conditions: with BCL2L1, Q07817-1.
BCL2L1, Q07817-1, sequence (Q07817 whole entry): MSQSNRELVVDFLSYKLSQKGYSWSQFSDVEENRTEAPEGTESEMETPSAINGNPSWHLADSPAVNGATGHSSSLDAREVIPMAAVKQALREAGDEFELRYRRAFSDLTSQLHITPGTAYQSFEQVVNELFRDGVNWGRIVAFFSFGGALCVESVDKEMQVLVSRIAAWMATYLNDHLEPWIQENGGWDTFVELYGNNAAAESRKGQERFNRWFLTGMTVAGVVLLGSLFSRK
As for M97A;D98A, the “effect of a mutation on the interaction” value is “disrupting interaction”.
